From US20250296971A1, “GASTRIC INHIBITORY PEPTIDE RECEPTOR LIGANDS” (priority 2021, published 2025)
*1 amine or outer side, *2 acyl side, *3 side chain or, on linkers, in order; H or OH if unused. Bridges are numbered along the chain shown (N, C = ends). Primed or numbered codes have the meaning given here. Side-chain parts run from the residue outwards. [ ]: non-standard residue; d: D form. The star is where a group is joined. Ttds = 1,13-diamino-4,7,10-trioxatridecan-succinamic acid, NCCCOCCOCCOCCCNC(=O)CCC(=O)*; DOTA(In) = O=C1CN2CCN3CCN(CC(=O)*)CCN(CC2)CC(=O)[O][In]([O]1)[O]C(=O)C3; NH(1-deoxy-D-glucityl) = OC[C@@H](O)[C@@H](O)[C@H](O)[C@@H](O)CN*; (dE)(AGLU) = D-glutamic acid bearing 1-amino-1-deoxy-D-glucitol; APAc″ = 4-amino-1-carboxymethylpiperidine, NC1CCN(CC(=O)*)CC1; dE(AGLU) = D-glutamic acid bearing 1-amino-1-deoxy-D-glucitol; Pro(trans-4-NH2) = O=C([C@@H]1C[C@@H](N[*:3])CN1[*:1])[*:2]; DOTA = O=C(O)CN1CCN(CC(=O)O)CCN(CC(=O)*)CCN(CC(=O)O)CC1; 3MeBn = 3-methyl-benzylidene (derived from 1,3-xylene); 2Lut = 2,6-lutidylidene bridge between two thiols; N(CH2CH2CO)Gly = O=C(CN(CCC(=O)[*:3])[*:1])[*:2]; Trp(5-Br) = N[C@@H](Cc1c[nH]c2ccc(Br)cc12)C(=O)O; Trp(5-Cl) = N[C@@H](Cc1c[nH]c2ccc(Cl)cc12)C(=O)O; Pyridine(2,6-diCH2) = c1cc(C[*:1])nc(C[*:2])c1; Trp(6-F) = N[C@@H](Cc1c[nH]c2cc(F)ccc12)C(=O)O; Cysol = L-cysteinol, OC[C@H](CS[*:3])N[*:1]; APAc = 4-amino-1-carboxymethylpiperidine; mXylylene = c1cc(C[*:1])cc(C[*:2])c1; LuDOTA = DOTA Lutetium(III) complex; Glutaryl = O=C(CCCC(=O)[*:2])[*:1]; AGLU = 1-amino-1-deoxy-D-glucitol; Hyp = O=C(O)[C@@H]1C[C@@H](O)CN1; Cysteamide = C(CS[*:3])N[*:1]; dGlu(AGLU) = not defined here; Suc = O=C(CCC(=O)[*:2])[*:1]; ZnDOTA = DOTA zinc complex; αMeS = C[C@](N)(CO)C(=O)O; Api = NC1(C(=O)O)CCNCC1; Nphe′ = N-phenylalanine; Thp = NC1(C(=O)O)CCOCC1; AEEA = NCCOCCOCC(=O)O; Aib = CC(C)(N)C(=O)O; Sar = CNCC(=O)O

B1: HO-Succinyl-Trp-5Clw-Hyp-Glu-leu-[Cys(2Lut)-Thp-Leu-Ile-Cys]-APAc-Lys(InDOTA)-NH2 (peptide)
peptide: Suc-W[Trp(5-Cl)][Hyp]E[dL]C[Thp]LIC-{APAc-Lys(InDOTA)-NH2}
modifications: linker 6-10 via 2Lut; also: In complex of DOTA
B2: Ac-Asp-Trp-5Clw-Hyp-Glu-leu-[Cys(2Lut)-Thp-Leu-Ile-Cys]-APAc-glu(AGLU)-NH2 (peptide)
peptide: Ac-DW[Trp(5-Cl)][Hyp]E[dL]C[Thp]LIC-{APAc-(dE)(AGLU)-NH2}
modifications: linker 7-11 via Pyridine(2,6-diCH2)
B3: LuDOTA-Ttds-Asp-Trp-5Clw-Pro-Glu-leu-[Cys(3MeBn)-Thp-Leu-Ile-AET] (peptide)
peptide: {LuDOTA-Ttds}-DW[Trp(5-Cl)]PE[dL]C[Thp]LI[Cysteamide]
modifications: linker 7-11 via mXylylene
B4: LuDOTA-Ttds-Asp-Trp-5Clw-Hyp-Glu-leu-[Cys(3MeBn)-Aib-Leu-Ile-AET] (peptide)
peptide: {LuDOTA-Ttds}-DW[Trp(5-Cl)][Hyp]E[dL]C[Aib]LI[Cysteamide]
modifications: linker 7-11 via mXylylene
B5: InDOTA-Ttds-Asp-Trp-5Clw-Pro-Glu-leu-[Cys(3MeBn)-Thp-Leu-Ile-AET] (peptide)
peptide: {DOTA(In)-Ttds}-DW[Trp(5-Cl)]PE[dL]C[Thp]LI[Cysteamide]
modifications: linker 7-11 via mXylylene; also: indium(III) complexed in DOTA
B6: LuDOTA-APAc-Asp-Trp-5Clw-Pro-Glu-leu-[Cys(3MeBn)-Aib-Leu-Ile-AET] (peptide)
peptide: {LuDOTA-APAc″}-DW[Trp(5-Cl)]PE[dL]C[Aib]LI[Cysteamide]
modifications: linker 7-11 via mXylylene
B7: AGLU-Glutar-Asp-Trp-5Clw-Hyp-Glu-leu-[Cys(2Lut)-Thp-Leu-Ile-Cys]-NH2 (peptide)
peptide: {AGLU-Glutaryl}-DW[Trp(5-Cl)][Hyp]E[dL]C[Thp]LIC-NH2
modifications: linker 7-11 via Pyridine(2,6-diCH2)
B8: Ac-Asp-Trp-5Clw-Hyp-Glu-leu-[Cys(2Lut)-Thp-Leu-Ile-Cysol]-OH (peptide)
peptide: Ac-DW[Trp(5-Cl)][Hyp]E[dL]C[Thp]LI[Cysol]-OH
modifications: linker 7-11 via Pyridine(2,6-diCH2)
B9: DOTA-glu(AGLU)-O2Oc-Asp-Trp-5Clw-Tap-Glu-leu-[Cys(2Lut)-Apc(AGLU-Glutar)-Leu-Ile-Cys]-APAc-glu(AGLU)-NH2 (peptide)
peptide: {DOTA-dGlu(AGLU)-AEEA}-DW[Trp(5-Cl)][Pro(trans-4-NH2)]E[dL]C[Api]([Glutaryl-NH(1-deoxy-D-glucityl)])LIC-{APAc-dGlu(AGLU)-NH2}
modifications: linker 7-11 via 2Lut; reading uncertain
B10: Ac-Asp-Trp-5Clw-Hyp-Glu-leu-[Cys(2Lut)-Apc(DOTA)-Leu-Ile-Cys]-NH2 (peptide)
peptide: Ac-DW[Trp(5-Cl)][Hyp]E[dL]C[Api](DOTA)LIC-NH2
modifications: linker 7-11 via Pyridine(2,6-diCH2)
B11: LuDOTA-Ttds-Asp-Trp-5Clw-Nmg-Glu-leu-[Cys(3MeBn)-Aib-Leu-Ile-AET] (peptide)
peptide: {LuDOTA-Ttds}-DW[Trp(5-Cl)][Sar]E[dL]C[Aib]LI[Cysteamide]
modifications: linker 7-11 via mXylylene
B12: Ac-Asp-Trp-5Clw-Nglu(AGLU)-Glu-leu-[Cys(2Lut)-Thp-Leu-Ile-Cys]-NH2 (peptide)
peptide: Ac-DW[Trp(5-Cl)][N(CH2CH2CO)Gly](NH(1-deoxy-D-glucityl))E[dL]C[Thp]LIC-NH2
modifications: linker 7-11 via Pyridine(2,6-diCH2)
B13: Ac-Asp-Trp-5Clw-Nphe-Glu-leu-[Cys(2Lut)-Thp-Leu-Ile-Cys]-NH2 (peptide)
peptide: Ac-DW[Trp(5-Cl)][Nphe′]E[dL]C[Thp]LIC-NH2
modifications: linker 7-11 via Pyridine(2,6-diCH2)
B14: InDOTA-Ttds-Asp-Trp-5Clw-Pro-Glu-leu-[Cys(3MeBn)-Aib-Leu-Ile-AET] (peptide)
peptide: {DOTA(In)-Ttds}-DW[Trp(5-Cl)]PE[dL]C[Aib]LI[Cysteamide]
modifications: linker 7-11 via 3MeBn; also: DOTA as indium complex (InDOTA)
B15: DOTA-Ttds-Asp-6Fw-5Clw-Pro-Glu-leu-[Cys(3MeBn)-Aib-Leu-Ile-AET] (peptide)
peptide: {DOTA-Ttds}-D[Trp(6-F)][Trp(5-Cl)]PE[dL]C[Aib]LI[Cysteamide]
modifications: linker 7-11 via mXylylene
B16: AGLU-Glutar-Asp-Trp-5Clw-Hyp-Glu-leu-[Cys(2Lut)-Apc(ZnDOTA)-Leu-Ile-AET] (peptide)
peptide: {AGLU-Glutaryl}-DW[Trp(5-Cl)][Hyp]E[dL]C[Api](ZnDOTA)LI[Cysteamide]
modifications: linker 7-11 via Pyridine(2,6-diCH2)
B17: Ac-Asp-Trp-5Clw-Nmg-Glu-leu-[Cys(2Lut)-Thp-Leu-Ile-Cys]-NH2 (peptide)
peptide: Ac-DW[Trp(5-Cl)][Sar]E[dL]C[Thp]LIC-NH2
modifications: linker 7-11 via Pyridine(2,6-diCH2)
B18: LuDOTA-Ttds-Asp-Trp-5Clw-Pro-Glu-leu-[Cys(3MeBn)-Ams-Leu-Ile-AET] (peptide)
peptide: {LuDOTA-Ttds}-DW[Trp(5-Cl)]PE[dL]C[αMeS]LI[Cysteamide]
modifications: linker 7-11 via mXylylene
B19: AGLU-Glutar-APAc-Asp-Trp-5Brw-Tap-Glu-leu-[Cys(2Lut)-Apc(DOTA)-Leu-Ile-Cys]-APAc-glu(AGLU)-NH2 (peptide)
peptide: {AGLU-Glutaryl-APAc}-DW[Trp(5-Br)][Pro(trans-4-NH2)]E[dL]C[Api](DOTA)LIC-{APAc-dE(AGLU)-NH2}
modifications: linker 7-11 via Pyridine(2,6-diCH2)
B20: InDOTA-Ttds-Asp-Trp-5Clw-Pro-Glu-leu-[Cys(3MeBn)-Ams-Leu-Ile-AET] (peptide)
peptide: {DOTA(In)-Ttds}-DW[Trp(5-Cl)]PE[dL]C[αMeS]LI[Cysteamide]
modifications: linker 7-11 via 3MeBn; also: DOTA as indium complex (InDOTA)

target: human Gastric Inhibitory Peptide Receptor (human) (UniProt P48546); test: FACS competition with GIP-057 on CHO-K1-hGIPR cells; pIC50 category A: >8.0

pIC50	Binder
> 8 pic50	B1
> 8 pic50	B2
> 8 pic50	B3
> 8 pic50	B4
> 8 pic50	B5
> 8 pic50	B6
> 8 pic50	B7
> 8 pic50	B8
> 8 pic50	B9
> 8 pic50	B10
> 8 pic50	B11
> 8 pic50	B12
> 8 pic50	B13
> 8 pic50	B14
> 8 pic50	B15
> 8 pic50	B16
> 8 pic50	B17
> 8 pic50	B18
> 8 pic50	B19
> 8 pic50	B20
